B1: Frizzled 6 (FZD6), wild type, expressed as V5-FZD6-mCherry and as FZD6-GFP [human] / Frizzled 6 (FZD6), wild type, expressed as V5-FZD6-mCherry and as FZD6-GFP [human] (parent)
chain 1: HSLFTCEPITVPRCMKMAYNMTFFPNLMGHYDQSIAAVEMEHFLPLANLECSPNIETFLCKAFVPTCIEQIHVVPPCRKLCEKVYSDCKKLIDTFGIRWPEELECDRLQYCDETVPVTFDPHTEFLGPQKKTEQVQRDIGFWCPRHLKTSGGQGYKFLGIDQCAPPCPNMYFKSDELEFAKSFIGTVSIFCLCATLFTFLTFLIDVRRFRYPERPIIYYSVCYSIVSLMYFIGFLLGDSTACNKADEKLELGDTVVLGSQNKACTVLFMLLYFFTMAGTVWWVILTITWFLAAGRKWSCEAIEQKAVWFHAVAWGTPGFLTVMLLAMNKVEGDNISGVCFVGLYDLDASRYFVLLPLCLCVFVGLSLLLAGIISLNHVRQVIQHDGRNQEKLKKFMIRIGVFSGLYLVPLVTLLGCYVYEQVNRITWEITWVSDHCRQYHIPCPYQAKAKARPELALFMIKYLMTLIVGISAVFWVGSKKTCTEWAGFFKRNRKRDPISESRRVLQESCEFFLKHNSKVKHKKKHYKPSSHKLKVISKSMGTSTGATANHGTSAVAITSHDYLGQETLTEIQTSPETSMREVKADGASTPRLREQDCGEPASPAASISRLSGEQVDGKGQAGSVSESARSEGRISPKSDITDTGLAQSNNLQVPSSSEPSSLKGSTSLLVHPVSGVRKEQGGGCHSDT
chain 2: B1 chain 1

The variants in the first assay derive from B1. Description: dcFRAP. The settings on record: with Frizzled 6 (FZD6), GFP channel (FZD6-GFP dimer mutant), without CL (before biotin-anti-V5/avidin surface crosslinking of V5-FZD6-mCherry), N = 23 ROIs, read off a plot.
For chain 1 D347A R350A Y351A, the response (% of pre-bleach) was found to be 85.

The same assay, now with this note: with Frizzled 6 (FZD6), GFP channel (FZD6-GFP dimer control mutant), without CL (before crosslinking of V5-FZD6-mCherry), N = 75 ROIs, read off a plot.
For the variant chain 1 D347E R350K Y351F, the response (% of pre-bleach) is 85.

The values are drawn from paper PMC5548745, “Agonist-induced dimer dissociation as a macromolecular step in G protein-coupled receptor signaling” (Nature Communications, 2017).
